Measurements from paper PMC11289409, “Coupling sensor to enzyme in the voltage sensing phosphatase” (Nature Communications, 2024).

Biological target: the molecule itself
Assay: cryo-EM structure; Dr-VSP (C302S) in MSP2N2 lipid nanodiscs (Dr-VSP:MSP2N2:lipid 1:4:400), 20 mM Tris, 150 mM NaCl, 5 mM EGTA, pH 8, 5.6 mg/ml; class of particles with the cytoplasmic domain as a dimer, 3.0 Å

B1: Danio rerio voltage-sensing phosphatase (Dr-VSP) with the active site cysteine mutated to serine (C302S) (enzyme, UniProt Q4V9E4 1-511, looked up)
chain: MTSVHFNPGLDSKEVNGNSVKEEAEVQIDDGKEETKDPDTMYHQVRKKITPFVMSFGFRVFGLVLIILDIIMVIVDLSLSEKSRDVGGAPETVSLVISFFFLIDVLLRVYVEGFKVYFSSKLNIVDACIVVITLVVTMIYAFSDFSGASLIPRVVTFLRSLRILILVRIFRLASQKRELEKVTRRMVSENKRRYQKDGFDLDLTYVTERVIAMSFPSSGKQALYRNPIREVVRFLDTKHMDHYKVFNLCSEKGYDPKFFHYRVERVMIDDHNVPSLDDMLRYTACVRDWMAADSRNVIAIHSKGGKGRTGTMVCTWLIDSDQFESAQESLDYFGERRTDKSMSSKFQGVETPSQSRYVGYYEIMKNQYNRQLPPRKSLKIKSIRIHSIAGVGKGNGSDLKLKIIVKHELVFQCVCAKQHNCTVFPDTGSNAVVISLQDGPIVTGDVKVMFESSAGLPKGYEDCPFYFWFNTSFVENYRLFLSREELDNPHKPKTWDIYKEDFGVTLSFTEP
notes: Danio rerio voltage-sensing phosphatase (Dr-VSP), full-length construct in a modified pPICZ-B vector, with C302S; only the cytoplasmic domain is resolved in the dimer map; The methods name the full-length Dr-VSP construct; also called Dr-VSP (C302S); Danio rerio VSP C302S; not shown: eGFP, C-terminal, cleaved; His10, C-terminal, cleaved
stoichiometry N: 2
